Measured values taken from patent publication US10960048B2, “Alpha-1-microglobulin for use in the protection of kidneys in radionuclide therapy” (Guard Therapeutics International AB, priority 2015, dated 2021).

B1: α1-microglobulin (protein, listed as Homo sapiens)
chain: MHHHHHHHHGGGGGIEGRGPVPTPPDNIQVQENFNISRIYGKWYNLAIGSTCPWLKKIMDRMTVSTLVLGEGATEAEISMTSTRWRKGVCEETSGAYEKTDTDGKFLYHKSKWNITMESYVVHTNYDEYAIFLTKKFSRHHGPTITAKLYGRAPQLRETLLQDFRVVAQGVGIPEDSIFTMADRGECVPGEQEPEPILIPR
notes: Recombinant human A1M expressed in E. coli
B2: ^125I-A1M: Recombinant human A1M radiolabelled with 125I using the chloramine T method (protein, UniProt P02760 20-203, looked up)
Alpha-1-microglobulin: GPVPTPPDNIQVQENFNISRIYGKWYNLAIGSTCPWLKKIMDRMTVSTLVLGEGATEAEISMTSTRWRKGVCEETSGAYEKTDTDGKFLYHKSKWNITMESYVVHTNYDEYAIFLTKKFSRHHGPTITAKLYGRAPQLRETLLQDFRVVAQGVGIPEDSIFTMADRGECVPGEQEPEPILIPRV
modifications: Alpha-1-microglobulin 125I radiolabel

Legend:
[1] = patients treated with PRRT; cited from earlier work
[2] = tested on: ^177Lu-octreotide PRRT kidney damage mouse model; experiment: Short-term radioprotection of kidneys with A1M in PRRT (^177Lu-octreotide PRRT kidney damage mouse model)
Procedure: NB, ^177Lu-DOTATATE and A1M are injected separately at T=0. Analytic Methods:
The mice were left for 1 day or 8 days, and then sacrificed with sampling of plasma and urine, as described above.

[3] = mouse, in vivo, iv
Procedure: Organ-specific uptake values were calculated as percent injected activity per gram of tissue (% IA/g) or percent injected activity (% IA).

[4] = SDS-PAGE / Western blotting of injected non-labelled A1M in kidneys and serum; format: in vivo, NMRI mice
Procedure: SDS-PAGE analysis was performed on kidneys and serum from animals that had been injected i.v. with non-labeled A1M (100 μl/animal, 1.5 mg/ml). Animals were terminated at 10, 20 and 60 minutes post-injection, blood and kidneys were sampled and kidneys were washed and placed in 1 ml PBS. Following mechanical tissue homogenization, tissue was centrifuged at 10,000×g for 10 minutes and supernatant was transferred to a new tube and used for further analysis as describe below. Serum was obtained from the blood samples by centrifugation at 1,000×g for 10 minutes. SDS-PAGE gels were run under reducing conditions and the separated proteins were transferred to polyvinylidene difluoride (PVDF) membranes (Immobilon-P, Millipore, Bedford, Mass., USA) using Trans-Blot Turbo transfer system (Bio-Rad, Delaware, USA). […] The membranes were developed using a ChemiDoc MP Imaging system (BioRad).

[5] = Immunohistochemistry and confocal fluorescence microscopy of A1M and octreotide-647 in kidney sections; parameters: species or system mice; details: mouse, in vivo
Procedure: However, only wild-type data are included. After euthanization, kidneys were removed directly frozen and embedded in Tissue Tec. […] Serial sectioning was performed, collecting 3-4 sections per slide, of which adjacent slides were used for either chromogen immunohistochemistry (IHC) or immunofluorescence (IF) labeling. Sections were post-fixed in 4% paraformaldehyde (PFA, Sigma, St. Louis, Mo., USA, dissolved in PBS, 0.1 M, pH 7.4) for 15 minutes, and rinsed in PBS two times for 5 minutes. For single labeling of […], sections were incubated with 0.03% hydrogen peroxide (H2O2, Merck, Darmstadt, Germany) for five minutes for chromogen visualization (IHC). For both chromogen and fluorescence visualization sections were incubated with 1% bovine serum albumin (BSA, Sigma, St. Louis, Mo., USA; diluted in PBS) for 30 minutes. Sections were then incubated with rabbit anti-human […] […] The choices of optical sections and scan depths were determined from the centre position of the majority of nuclei (DAPI labeling) in the scanned field. Sequential scanning was performed of channels displaying AF488, HiLyte Fluor 647, DAPI and Texas Red fluorescence. For each channel the renal profile with the highest fluorescence intensities was selected as a reference, from which the acquisition settings (laser power, PMT detector gain, digital offset) were optimized and used for all scanned areas. […]

[6] = from blood stream; cited from earlier work
[7] = in vivo, iv

Molecule	creatinine clearance loss [1]	plasma creatinine levels (marker of GFR) versus control ([2]; 150 MBq, after 1 and 8 days)	albumin concentrations in urine (proteinuria) versus control ([2]; 150 MBq, after 1 and 8 days, more pronounced after 1 day)	maximum of injected substance found per gram kidney tissue [3]	time of maximum (peak) uptake in the kidneys post-injection [3]	state of A1M found in blood and kidneys ([4]; 10, 20 and 60 minutes post-injection, 150 μg A1M i.v.)	time of highest amounts of A1M in kidneys and serum ([4]; Western blot, 10, 20 and 60 minutes post-injection)	time post-injection up to which A1M is intact, full-length ([4]; kidneys, i.v. injection)	fluorescence detection in kidney at 4 hours p.i. [5]	T½ of transport across the vessel walls to the extravascular compartment [6]	GFR (plasma creatinine) on simultaneous infusion of A1M ([2]; 150 μg A1M + 150 MBq 177Lu-DOTATATE, 1 and 8 days, highly significant after 8 days (P<0.01))	proteinuria (urine albumin) on simultaneous A1M-treatment, after 1 day ([2]; 150 μg A1M + 150 MBq 177Lu-DOTATATE, 1 day)	significantly reduced proteinuria (urine albumin) on simultaneous A1M-treatment, after 8 days ([2]; 150 μg A1M + 150 MBq 177Lu-DOTATATE, 8 days)	fraction of i.v. administered substance localized in kidneys [7]	uptake in the kidneys (biodistribution) [3]
C[C@@H](O)[C@H](NC(=O)[C@@H]1CSSC[C@H](NC(=O)[C@@H](Cc2ccccc2)NC(=O)CN2CCN(CC(=O)[O-])CCN(CC(=O)[O-])CCN(CC(=O)[O-])CC2)C(=O)N[C@@H](Cc2ccc(O)cc2)C(=O)N[C@H](Cc2c[nH]c3ccccc23)C(=O)N[C@@H](CCCCN)C(=O)N[C@@H]([C@@H](C)O)C(=O)N1)C(=O)O.[177Lu+3] [^177Lu-DOTATATE, ^177Lu-DOTA0, Tyr3]octreotate, reference compound]	3.8 % per year	significantly increased	significantly elevated	–	–	–	–	–	–	–	–	–	–	–	–
B1	–	–	–	76%	10 min	intact, full-length	10 min	≥ 60 min	significant decrease	2 to 3 min	restored the GFR to control levels	significantly reduced	not	–	–
B2	–	–	–	–	20 min	–	–	–	–	–	–	–	–	> 30%	High uptake
